Reference: PMC7081908
Values joined by “and” are separate entries in the source; they are usually repeats but may differ in a detail not shown here. Equal values may be shown once.

Target: IgG-CD4 protein (fusion protein of human CD4 domains 1 and 2 with human IgG1 Fc at the C terminus) (human)
Test: BLI; Octet QKe; IgG-CD4 loaded onto protein G sensors at 20 ug/ml in ForteBio kinetics buffer; serial dilutions of gp120 (600 nM to 0.4 nM) in solution; Kd = koff/kon, 1:1 fitting model; two GMP lots of each gp120

Row | Substance | Kd
1 | GMP-grade gp120 protein, HIV-1 clade AE consensus | 24.6 nM and 18.4 nM
2 | GMP-grade gp120 protein, HIV-1 clade B isolate JRFL (natural protein) | 7.44 nM and 4.87 nM
3 | GMP-grade gp120 protein, HIV-1 clade C isolate 93MW965.26 (natural protein) | 157 nM and 115 nM
